Our source for the Kd values is article PMC7809593 (2021).

The target of the test is CXCL12α (Homo sapiens, UniProt P48061, CXCR4 fused to Kate2). The test is described as follows: receptor internalization sensor.

B1: CXCR4 (protein)
chain: MEGISIYTSDNYTEEMGSGDYDSMKEPCFREENANFNKIFLPTIYSIIFLTGIVGNGLVILVMGYQKKLRSMTDKYRLHLSVADLLFVITLPFWAVDAVANWYFGNFLCKAVHVIYTVNLYSSVLILAFISLDRYLAIVHATNSQRPRKLLAEKVVYVGVWIPALLLTIPDFIFANVSEADDRYICDRFYPNDLWVVVFQFQHIMVGLILPGIVILSCYCIIISKLSHSKGHQKRKALKTTVILILAFFACWLPYYIGISIDSFILLEIIKQGCEFENTVHKWISITEALAFFHCCLNPILYAFLGAKFKTSAQHALTSVSRGSSLKILSKGKRGGHSSVSTESESSSFHSS
B1: the Kd is ~2 nM.
